The results in this text go back to paper PMC6201732 (Protein Science : A Publication of the Protein Society, 2018).

First the molecules themselves.
B1: Chlamydia trachomatis Serovar F native major outer membrane protein (nMOMP), from adherent HeLa 229 cells (natural protein)
chain: LPVGNPAEPSLMIDGILWEGFGGDPCDPCTTWCDAISMRMGYYGDFVFDRVLKTDVNKEFEMGEALAGASGNTTSTLSKLVERTNPAYGKHMQDAEMFTNAACMTLNIWDRFDVFCTLGATSGYLKGNSASFNLVGLFGDGVNATKPAADSIPNVQLNQSVVELYTDTTFAWSVGARAALWECGCATLGASFQYAQSKPKIEELNVLCNAAEFTINKPKGYVGKEFPLDLTAGTDAATGTKDASIDYHEWQASLSLSYRLNMFTPYIGVKWSRASFDSDTIRIAQPRLVTPVVDITTLNPTIAGCGSVAGANTEGQISDTMQIVSLQLNKMKSRKSCGIAVGTTIVDADKYAVTVETRLIDERAAHVNAQFRF
B2: Chlamydia trachomatis Serovar D native major outer membrane protein (nMOMP), from adherent HeLa 229 cells (natural protein)
chain: LPVGNPAEPSLMIDGILWEGFGGDPCDPCATWCDAISMRVGYYGDFVFDRVLKTDVNKEFQMGAKPTTDTGNSAAPSTLTARENPAYGRHMQDAEMFTNAACMALNIWDRFDVFCTLGATSGYLKGNSASFNLVGLFGDNENQKTVKAESVPNMSFDQSVVELYTDTTFAWSVGARAALWECGCATLGASFQYAQSKPKVEELNVLCNAAEFTINKPKGYVGKEFPLDLTAGTDAATGTKDASIDYHEWQASLALSYRLNMFTPYIGVKWSRASFDADTIRIAQPKSATAIFDTTTLNPTIAGAGDVKTGAEGQLGDTMQIVSLQLNKMKSRKSCGIAVGTTIVDADKYAVTVETRLIDERAAHVNAQFRF
B3: Chlamydia muridarum native major outer membrane protein (nMOMP), from adherent HeLa 229 cells (natural protein)
chain: LPVGNPAEPSLMIDGILWEGFGGDPCDPCTTWCDAISLRLGYYGDFVFDRVLKTDVNKQFEMGAAPTGDADLTTAPTPASRENPAYGKHMQDAEMFTNAAYMALNIWDRFDVFCTLGATSGYLKGNSAAFNLVGLFGRDETAVAADDIPNVSLSQAVVELYTDTAFAWSVGARAALWECGCATLGASFQYAQSKPKVEELNVLCNAAEFTINKPKGYVGQEFPLNIKAGTVSATDTKDASIDYHEWQASLALSYRLNMFTPYIGVKWSRASFDADTIRIAQPKLETSILKMTTWNPTISGSGIDVDTKITDTLQIVSLQLNKMKSRKSCGLAIGTTIVDADKYAVTVETRLIDERAAHVNAQFRF
B4: Chlamydia trachomatis Serovar E native major outer membrane protein (nMOMP), from adherent HeLa 229 cells (natural protein)
chain: LPVGNPAEPSLMIDGILWEGFGGDPCDPCTTWCDAISMRMGYYGDFVFDRVLKTDVNKEFQMGDKPTSTTGNATAPTTLTARENPAYGRHMQDAEMFTNAACMALNIWDRFDVFCTLGASSGYLKGNSASFNLVGLFGDNENQSTVKTNSVPNMSLDQSVVELYTDTAFSWSVGARAALWECGCATLGASFQYAQSKPKVEELNVLCNAAEFTINKPKGYVGQEFPLALIAGTDAATGTKDASIDYHEWQASLALSYRLNMFTPYIGVKWSRASFDADTIRIAQPKSATAIFDTTTLNPTIAGAGDVKASAEGQLGDTMQIVSLQLNKMKSRKSCGIAVGTTIVDADKYAVTVETRLIDERAAHVNAQFRF
B5: Chlamydia trachomatis Serovar E native major outer membrane protein (nMOMP), from CHO suspension cells (natural protein)
chain: LPVGNPAEPSLMIDGILWEGFGGDPCDPCTTWCDAISMRMGYYGDFVFDRVLKTDVNKEFQMGDKPTSTTGNATAPTTLTARENPAYGRHMQDAEMFTNAACMALNIWDRFDVFCTLGASSGYLKGNSASFNLVGLFGDNENQSTVKTNSVPNMSLDQSVVELYTDTAFSWSVGARAALWECGCATLGASFQYAQSKPKVEELNVLCNAAEFTINKPKGYVGQEFPLALIAGTDAATGTKDASIDYHEWQASLALSYRLNMFTPYIGVKWSRASFDADTIRIAQPKSATAIFDTTTLNPTIAGAGDVKASAEGQLGDTMQIVSLQLNKMKSRKSCGIAVGTTIVDADKYAVTVETRLIDERAAHVNAQFRF
B6: Chlamydia trachomatis Serovar E native major outer membrane protein (nMOMP), from HeLa suspension cells (natural protein)
chain: LPVGNPAEPSLMIDGILWEGFGGDPCDPCTTWCDAISMRMGYYGDFVFDRVLKTDVNKEFQMGDKPTSTTGNATAPTTLTARENPAYGRHMQDAEMFTNAACMALNIWDRFDVFCTLGASSGYLKGNSASFNLVGLFGDNENQSTVKTNSVPNMSLDQSVVELYTDTAFSWSVGARAALWECGCATLGASFQYAQSKPKVEELNVLCNAAEFTINKPKGYVGQEFPLALIAGTDAATGTKDASIDYHEWQASLALSYRLNMFTPYIGVKWSRASFDADTIRIAQPKSATAIFDTTTLNPTIAGAGDVKASAEGQLGDTMQIVSLQLNKMKSRKSCGIAVGTTIVDADKYAVTVETRLIDERAAHVNAQFRF

This series concerns the molecule itself. In words: SEC-MALS.
With B1, the “stoichiometry N” value came out at 2.85. The figure for B2 is 2.8; for B3 it is 2.59; for B4 it is 2.52. The figure for B5 is 2.27; for B6 it is 2.3.
